The values that follow come from paper PMC5897047.

Residue numbers refer to the chain shown, from its start. Names may count otherwise.

The target of this experiment is yeast 80S ribosome (S. cerevisiae (endogenous in yeast)) (UniProt P26321). Kind of experiment: fluorescence polarisation.
Sequence of UniProt P26321 (P26321 whole entry, looked up): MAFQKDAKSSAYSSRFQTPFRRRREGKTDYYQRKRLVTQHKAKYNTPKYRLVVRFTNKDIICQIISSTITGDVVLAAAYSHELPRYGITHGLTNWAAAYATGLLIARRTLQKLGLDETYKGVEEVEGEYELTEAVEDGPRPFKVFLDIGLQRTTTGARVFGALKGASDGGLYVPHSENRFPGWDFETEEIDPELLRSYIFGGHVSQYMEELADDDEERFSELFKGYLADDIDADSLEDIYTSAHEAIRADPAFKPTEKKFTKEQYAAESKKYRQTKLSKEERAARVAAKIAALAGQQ

B1: yeast non hypusine-containing eIF5A (eIF5A-Lys), wild type (natural protein)
chain: MSDEEHTFETADAGSSATYPMQCSALRKNGFVVIKSRPCKIVDMSTSKTGKHGHAKVHLVAIDIFTGKKLEDLSPSTHNMEVPVVKRNEYQLLDIDDGFLSLMNMDGDTKDDVKAPEGELGDSLQTAFDEGKDLMVTIISAMGEEAAISFKEAARTD
The molecule B1 gave a Ki of 238 nM.

B2: non hypusine-containing eIF5A from mutant tif51A-4 (K86A/R87A/E89A) (natural protein)
chain: B1 chain with K86A, R87A, E89A
On to B2, for which the Ki turned out to be 388 nM.

B3: yeast hypusine-containing eIF5A (eIF5A-Hyp), wild type (natural protein)
chain: B1 chain
modifications: hypusine at Lys51
For the molecule B3, the Ki turned out to be 8 nM.

B4: hypusine-containing eIF5A from mutant tif51A-4 (K86A/R87A/E89A) (natural protein)
chain: B1 chain with K86A, R87A, E89A
modifications: hypusine at Lys51
B4 returned a Ki of 171 nM.
